Test results taken from the DeepSol protein solubility set.

Assay: soluble on expression in E. coli; label from the status in PepcDB or PDB records

Row | Sequence | soluble on expression in E. coli
1 | MAHHHHHHMGKKKVGEIQRSEDFCIPAGDRDANSALPAEEWPLLLKNYDKMNVRSTHFTLLECGWSPLRRPLAEYIKYGMINMDKPSNPSSHEVVSWIKRILKCDKTGHAGTLDPKVTGALIICTDRATRLVKSQQNAGKTYIGVLRLHDTVSQKKVDAALQRLTGPCFQRPPLIAAVKRQLRIRNIYSNQLIEYDKHRHLAVFETHCEAGTYIRTLCVHVGLILGAGGHMEELRRIRTGVITENDHLSTMHDVMDAQWLYENEKDDTYLRRVILPCEYLLSNHKRIVVKDSAVNAVCYGAKLMIPGLARFDNGIERDDVVVLMTTKGEAIALAYAEMTTSQMASVDHGIVARSKRVIMDRDTYPRRWGLGPIAVKKRSMMKDGLLDKYGRPQSNTPSDWFYVDYGGVKTNAEGVQYGQAPSKVGGVKRQRVPDSDDD | not soluble
2 | GSMNDRDFMRYSRQILLDDIALDGQQKLLDSQVLIIGLGGLGTPAALYLAGAGVGTLVLADDDDVHLSNLQRQILFTTEDIDRPKSQVSQQRLTQLNPDIQLTALQQRLTGEALKDAVARADVVLDCTDNMATRQEINAACVALNTPLITASAVGFGGQLMVLTPPWEQGCYRCLWPDNQEPERNCRTAGVVGPVVGVMGTLQALEAIKLLSGIETPAGELRLFDGKSSQWRSLALRRASGCPVCGGSNADPV | soluble
3 | MSTPVLELRGIVKTFGATRALDGASLRVAAGSVHGLVGENGAGKSTLIKVLAGIHRPDAGSLLLDGQPHGHFSPRQVERLGIGFIHQERLLPARFTVGEALFFGHERRFGPLLDRRSQQREAARLLDDYFGLRLPANALIGELSSAEQQMVQIVRALLIKPRVLVFDEPSVALVQREVERLLRIVQRLRDDGLAIVYISHYLQEIEALCDRVTVLRNGRDVAEVSPRNTSLEQITRLMVNREVGELYPKVAVPAGALLLDVRGLGRARAYQGIDLQVRRGEIVGLTGLVGSGAKELLRSLFGLAPPDSGEVRLDGQPLSLRSPREAVAQGVALMPEERRRQGVALDLSVQENTTLAALSRFVRLGLLSPARERHTTLELIERLRIKAHGAHAKVRQLSGGNQQKVALAKWFARCSSLYLLDEPSVGIDVGAKVEIYRLIGELVKEGAGVLILSSDLPELIGLCDRIHVMHRGAIAARFAAGEANSDRLLAVATGAQRAQNEERPFYAYAIAI | not soluble
4 | MPLEASELKPTAGPLEASELKPTAGPLEASELKPTAGPLEASELKPTAGPLEASELKPTAGPLEASELKPTAGPLEASELKPTAGMPSVQQDITHPKELLISTNWLNRKDVPFMNNQEQQIQNVLNTLRDPDTIRTRSHRILNLAKQNRLEHFSLNPERMTTTASYIVDIITSRYPELDIPYHSRWRHFEMDGLPRIHNLRKQLDPISPSEWGKILYELVIISVFLDAGAGPLWRYKEALTEKEYSRSEGLALASLYLYESGAFSADPTNPFRVDAERLLDFKETDLIKGFQVSSTNLLEGIPGRVSLLNRLGEIIHRKEHCFNRRKRLGEFYTYVESLQDNKILPTTKLFEAVLETFNDIWPVRLIYHGVSLGDVWIHSALKTNEAGSEYIPFHKLSQWLTYSLVEPLEQTGIDIADLDVLTGLPEYRNGGLLIDTELLKVRNNKILEQPQDPGSEPIVEWRALTVALLDELALLIRQQLNMNAESLPLAKILQGGTWEAGRQIAQKKRINGTPPIEIISDGTIFLEHHHHHH | not soluble
5 | PKKDWLSYVVSSKARNKIKQQLRLQMESSIGVVKELLNRRLKNRKLPFEEAVFTRVVRRKGFKHLTDFYMEIAADRLDVQEVLELYSHELEEE | not soluble
6 | MRAHEIEYKLYGDDMQFVEIELDPEESVIAEAGAMMMMEDYIEMETIFGDGSGPSGGLFGKLMGAGKRLVTGESMFMTVFTNTGHGKRHVSFAAPYPGKIIPVDLTEYQGKVVCQKDAFLCAAKGVSLGIEFTKKIGTGFFGGEGFIMQKLEGDGLAFMHAGGTVYKRELKPGEKLRIDTGCLVAMTKDINYDVEFVGKVKTALFGGEGLFFATLEGPGTVWIQSLTLSRLAARLTSPAAQSTGEGSVLGGLGRLLDGKE | not soluble
7 | MARKKTITKEQILTAAYEVVATEGFSKFTARNIANKMKCSTQPIYLEFKNMDDLRDALFQKIHKYLAKEVFPVKHTGNTIVDLALNYIHFATSESKLYRALYLEEYGGGKKMQEFSYHYFTEAVKADPEYANLNDVQIDSLHMGTWVVATGVAALMTSGIIHPSEEQIIHLMKDSIEAILERDEPIDIDL | soluble
8 | MSRQRLGKSMIKANSWSSNLNAYRILQEPQSLTEEPPPIQTICPVQPESMAPPEHHNHRHLVTQEENRGRHLVGNPMRRTRSDVGAHGLTPHQPLLTRSKSDHGLERVATPLAFEVQSVGSEQTASSAEVMTAAGRRHSLLTDYQAAIARPLDLDRVLAAVKLRAAAEIYCKKNNLARLSPRPPRTSAGNQRLDALVNRPVDELIAEVQAAPRKFSRTQLTDVAQRHLLAALNIDIDQYKKGVHKAGLYEGLHSVAGRLVSVAAAAVSAGVSEVPGVSKTVTKTVKILSHQLPSSVVNPALTGGLRSVTDVMESFKRVGGLPVLSPQIDKSPDMGKIVKAAREMRGQLDEAVGHFARAHKSDPQALPRLVDAFLALHGVADRQYRRRIGLNRTQTYGKGWGMAVNGVAAIGTVVSTTVPVVGQVAGPAILASTIPLQWGAGYLDERRNKHRYNLRANTKWGDFLKDNAANIHFKDLTVEHISESKLRQSFLTQPEVQIAAIREVYEDTIGELMRRRLEMQKDIDVQREAGRPMRALALKQLRELDAEIDVTKMHADQFESFNMDRWSAIPEDSVIGRCLDDLDNLQKANRRARLRKPGEGAQIVQRYVQAFQGGVSTGTTLPVVDAVASIDSFHVHDSQGHDHGLQPAPLAVAAGTGAAGGAVFTGATGEVRMSKADNKKIMTQLRVDPEVYTADAEHWRFRAGNRDVDLRTSAGYKQHAHTRWDELALVAQALKHGLTSGPVGLKNLAVAKVELRQARASLQSALDALAASGLPHRTPDSARAPTISSMKDQLYDYSEVRRHLGV | not soluble
9 | MAFDAARYVHRYYASLAPAPGNEYPRLRAWEYLWEYVWDPSRSWDDLTAPEQLDTTALHLGFYLANWGMFRGSSGLLQNSNLDLMKALARQLFSGAGPELFELSLVDFAGNGARLAHNRKLLETVLGSMDALSSRVSWTDTLKSKILLGVWGEFPALDRHYVAACRALYPRRGLTSVNGGTLTALHRLIGEERLSFPRLETARKGLLYPTGRLADMAFFQYGLENALEHHHHHH | soluble
10 | MIDLHTHTIFSDGELIPSELVRRAVIHGYEAIALTDHADYTNLEQLLDAAKKAKYLEEEWDIRVLSGVELTHVPPRKIAPMAKKAKELGAEIVVVHGETISEPVAQGTNAASAACEYVDILAHPGLISEEDVRTAAENNVFLELTARNGHNRTNGHVARLALEFGATLVVNTDTHAPENLITDETALKIAMGAGL | not soluble
11 | MGSDKIHHHHHHMIKYIALASVVLLVGCSSTAKKPIADDPFYAPVYPDTVPTQVAATGSIYLDSQASSLYSDIRAHRVGDIITVTLKESTQASKSANNEIKKGSDLSVEPVYAGGKNISISGVPIDLGYSDSMNTKRESDADQSNSLDGSISANIIQVLSNGNLVIRGEKWISINNGDEFIRVTGMIRSEDINPDNTIDSTRVANARIQYSGTGTFADSQKVGWLSSFFMSDWWPF | not soluble
12 | MEGERMNAFPSTMMDEELNLWDFLERAAALFGRKEVVSRLHTGEVHRTTYAEVYQRARRLMGGLRALGVGVGDRVATLGFNHFRHLEAYFAVPGMGAVLHTANPRLSPKEIAYILNHAEDKVLLFDPNLLPLVEAIRGELKTVQHFVVMDEKAPEGYLAYEEALGEEADPVRVPERAACGMAYTTGTTGLPKGVVYSHRALVLHSLAASLVDGTALSEKDVVLPVVPMFHVNAWCLPYAATLVGAKQVLPGPRLDPASLVELFDGEGVTFTAGVPTVWLALADYLESTGHRLKTLRRLVVGGSAAPRSLIARFERMGVEVRQGYGLTETSPVVVQNFVKSHLESLSEEEKLTLKAKTGLPIPLVRLRVADEEGRPVPKDGKALGEVQLKGPWITGGYYGNEEATRSALTPDGFFRTGDIAVWDEEGYVEIKDRLKDLIKSGGEWISSVDLENALMGHPKVKEAAVVAIPHPKWQERPLAVVVPRGEKPTPEELNEHLLKAGFAKWQLPDAYVFAEEIPRTSAGKFLKRALREQYKNYYGGA | soluble
13 | MDALELLINRRSASRLAEPAPTGEQLQNILRAGMRAPDHKSMQPWHFFVIEGEGRERFSAVLEQGAIAAGSDDKAIDKARNAPFRAPLIITVVAKCEENHKVPRWEQEMSAGCAVMAMQMAAVAQGFGGIWRSGALTESPVVREAFGCREQDKIVGFLYLGTPQLKASTSINVPDPTPFVTYFHH | soluble
